Test results: the supplement of paper PMC9428881
± gives the standard error.

Assay: background-corrected fluorescence of 3'-dye-labeled ssDNA relative to brightest sequence (3'-GCGCG) (fraction); higher = brighter dye fluorescence (less quenching)
How it was run: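 By light-directed phosphoramidite synthesis, single-stranded DNA ending in a 3' Cy3 or Cy5 dye beside each of 1024 permuted pentamers was built on glass slides. Scanning at 532 or 635 nm took place before and after overnight ethylenediamine/ethanol deprotection. Data are means of 10 features per array over at least 3 syntheses. Fluorescence is corrected for unlabeled-oligo background and scaled to the brightest sequence.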

Sequence | background-corrected fluorescence (dye: Cy3 (3' terminal)) | background-corrected fluorescence (dye: Cy5 (3' terminal))
TTTTTTCAGCATGATGATGATTTTTTTTTTTTTTTGTCCC [CCCTG] | 0.38 ± 0.023 | 0.294 ± 0.019
TTTTTTCAGCATGATGATGCTTTTTTTTTTTTTTTGTCCA [ACCTG] | 0.484 ± 0.021 | 0.366 ± 0.023
TTTTTTCAGCATGATGCGCATTTTTTTTTTTTTTTGTCAT [TACTG] | 0.529 ± 0.025 | 0.39 ± 0.03
TTTTTTCAGCATGATGCTCATTTTTTTTTTTTTTTGTCAG [GACTG] | 0.546 ± 0.028 | 0.404 ± 0.051
TTTTTTCAGCATGATGCTGATTTTTTTTTTTTTTTGTCAC [CACTG] | 0.417 ± 0.0042 | 0.336 ± 0.022
TTTTTTCAGCATGATGCTGCTTTTTTTTTTTTTTTGTCAA [AACTG] | 0.609 ± 0.012 | 0.453 ± 0.04
TTTTTTCAGCATGCGCAGCATTTTTTTTTTTTTTTGTATT [TTATG] | 0.5 ± 0.07 | 0.375 ± 0.03
TTTTTTCAGCATGCGCATCATTTTTTTTTTTTTTTGTATG | 0.57 ± 0.011 | 0.419 ± 0.027
TTTTTTCAGCATGCGCATGATTTTTTTTTTTTTTTGTATC [CTATG] | 0.417 ± 0.024 | 0.309 ± 0.019
TTTTTTCAGCATGCGCATGCTTTTTTTTTTTTTTTGTATA [ATATG] | 0.55 ± 0.031 | 0.404 ± 0.027
TTTTTTCAGCATGCTCAGCATTTTTTTTTTTTTTTGTAGT [TGATG] | 0.575 ± 0.0066 | 0.459 ± 0.032
TTTTTTCAGCATGCTCATCATTTTTTTTTTTTTTTGTAGG [GGATG] | 0.618 ± 0.027 | 0.51 ± 0.1
TTTTTTCAGCATGCTCATGATTTTTTTTTTTTTTTGTAGC [CGATG] | 0.535 ± 0.028 | 0.441 ± 0.081
TTTTTTCAGCATGCTCATGCTTTTTTTTTTTTTTTGTAGA [AGATG] | 0.671 ± 0.021 | 0.533 ± 0.039
TTTTTTCAGCATGCTGAGCATTTTTTTTTTTTTTTGTACT [TCATG] | 0.476 ± 0.0074 | 0.399 ± 0.025
TTTTTTCAGCATGCTGATCATTTTTTTTTTTTTTTGTACG | 0.561 ± 0.02 | 0.475 ± 0.031
TTTTTTCAGCATGCTGATGATTTTTTTTTTTTTTTGTACC [CCATG] | 0.434 ± 0.028 | 0.311 ± 0.017

Sequence | background-corrected fluorescence (dye: Cy3 (3' terminal)) | background-corrected fluorescence (dye: Cy5 (3' terminal))
TTTTTTCAGCATGCTGATGCTTTTTTTTTTTTTTTGTACA [ACATG] | 0.528 ± 0.0051 | 0.399 ± 0.019
TTTTTTCAGCATGCTGCGCATTTTTTTTTTTTTTTGTAAT [TAATG] | 0.531 ± 0.019 | 0.435 ± 0.043
TTTTTTCAGCATGCTGCTCATTTTTTTTTTTTTTTGTAAG [GAATG] | 0.582 ± 0.038 | 0.462 ± 0.069
TTTTTTCAGCATGCTGCTGATTTTTTTTTTTTTTTGTAAC [CAATG] | 0.441 ± 0.025 | 0.364 ± 0.026
TTTTTTCAGCATGCTGCTGCTTTTTTTTTTTTTTTGTAAA [AAATG] | 0.618 ± 0.014 | 0.513 ± 0.028
TTTTTTCATCAGCAGCAGCATTTTTTTTTTTTTTTGGTTT | 0.536 ± 0.02 | 0.402 ± 0.045
TTTTTTCATCAGCAGCATCATTTTTTTTTTTTTTTGGTTG [GTTGG] | 0.524 ± 0.02 | 0.392 ± 0.022
TTTTTTCATCAGCAGCATGATTTTTTTTTTTTTTTGGTTC [CTTGG] | 0.414 ± 0.026 | 0.31 ± 0.025
TTTTTTCATCAGCAGCATGCTTTTTTTTTTTTTTTGGTTA [ATTGG] | 0.53 ± 0.015 | 0.446 ± 0.071
TTTTTTCATCAGCATCAGCATTTTTTTTTTTTTTTGGTGT [TGTGG] | 0.663 ± 0.02 | 0.511 ± 0.037
TTTTTTCATCAGCATCATCATTTTTTTTTTTTTTTGGTGG | 0.629 ± 0.028 | 0.483 ± 0.055
TTTTTTCATCAGCATCATGATTTTTTTTTTTTTTTGGTGC [CGTGG] | 0.522 ± 0.0057 | 0.419 ± 0.027
TTTTTTCATCAGCATCATGCTTTTTTTTTTTTTTTGGTGA [AGTGG] | 0.627 ± 0.026 | 0.555 ± 0.04
TTTTTTCATCAGCATGAGCATTTTTTTTTTTTTTTGGTCT [TCTGG] | 0.486 ± 0.026 | 0.391 ± 0.031
TTTTTTCATCAGCATGATCATTTTTTTTTTTTTTTGGTCG [GCTGG] | 0.526 ± 0.035 | 0.405 ± 0.028
TTTTTTCATCAGCATGATGATTTTTTTTTTTTTTTGGTCC [CCTGG] | 0.404 ± 0.0089 | 0.317 ± 0.03
TTTTTTCATCAGCATGATGCTTTTTTTTTTTTTTTGGTCA [ACTGG] | 0.506 ± 0.027 | 0.414 ± 0.02
